According to US11319374B2, “Inhibitors of prototypic galectin dimerization and uses thereof” (INSTITUT NATIONAL DE LA RECHERCHE SCIENTIFIQUE, priority 2015, dated 2022):
Where no end group is shown, it is not given here.

Experiments:
[1] = target: T1, hGal-7 homodimer (Homo sapiens, UniProt P47929); assay: hGal-7 homodimer disruption, low-SDS native gel electrophoresis / Western blotting; format: biochemical; conditions: recombinant hGal-7 0.5 μM, increasing peptide concentrations
T1 construct: made in house; host or cells: E. coli BL21 (DE3)
T1 sequence (P47929 2-136 limits assumed): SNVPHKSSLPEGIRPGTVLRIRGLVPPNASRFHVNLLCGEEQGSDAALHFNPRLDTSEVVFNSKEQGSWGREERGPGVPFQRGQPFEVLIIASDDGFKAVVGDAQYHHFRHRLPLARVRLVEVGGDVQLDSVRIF
Description: Production of recombinant hGal-7 and hGal-1. Human Gal-7 cDNA was cloned into pET-22b(+) using Ndel and HindIII restriction enzymes. Human pET-Gal-1 vector was generously donated by Dr. S. Sato (McGill University, QC, Canada). The proteins were produced in E. coli BL21 (DE3) cells at 37° C. Isopropyl p-D-1-thiogalactopyranoside (IPTG) (1 mM) was added to the bacterial culture at OD600nm=0.6-0.7 and then incubated for 4 h at 37° C. to allow protein production. Bacterial pellets were resuspended in lysis buffer (0.7 mg/mL lysozyme, 10 mM Tris pH 8, 100 mM NaCl, 1 mM EDTA, 1 mM DTT and a protease inhibitor cocktail) and then incubated for 1 h at 37° C. prior to centrifugation for 30 min at 15,000×g (4° C.). The supernatant was then filtered with 500 mL bottle top filter ([…]) (Corning®, New York, N.Y., USA) and then ran through a lactose-agarose column (Sigma®, St. Louis, Mo., USA). The protein was eluted in 1 mL fractions with 150 mM lactose solution. Purified fractions were analyzed by SDS-PAGE. The hGal-7 was then concentrated and purified using Centrifugal filter units (Amicon® Ultra-15, 10K) (EMD®, Etobicoke, ON) in 20 mM potassium phosphate at pH 7.1. All subsequent experiments with the recombinant proteins were performed in the same buffer solution unless mentioned otherwise. Brilliant Coomassie blue was purchased from BioRad® (Bio-Rad Laboratories®, Mississauga, ON, Canada). The recombinant human Bcl-2 protein fragment was purchased from Abcam® (Abcam®, Cambridge, UK, Cat #ab73696).
Western blotting. For the apoptosis tests, whole-cell extracts were homogenized and resuspended in RIPA buffer (Thermo Fisher Scientific®, Rockford, Ill., USA) containing protease inhibitors (Roche®, Laval, QC, Canada). Equal amounts of whole-cell extracts (25 μg) were separated on SDS-PAGE and transferred onto nitrocellulose membranes (Bio-Rad Laboratories®). The membranes were first blocked with 5% milk [w/v] in TBS/0.5% Tween® 20 [v/v] for 1 h at room temperature and subsequently blotted overnight in a solution of TBS containing 3% BSA [w/v] and 0.5% Tween 20 [v/v]. The following antibodies were used: a rabbit anti-Poly-(ADP-ribose) polymerase (PARP)-1 (p25) polyclonal antibody (1:5000; Epitomics®, Burlingame, Calif., USA) and a mouse anti-β-actin (1:10000; Sigma-Aldrich®, St-Louis, Mo., USA). Secondary antibodies consisted of horseradish peroxidase-conjugated donkey anti-rabbit (GE Healthcare®, Buckinghamshire, England) and sheep anti-mouse (GE Healthcare®) IgG. Detection was performed using the enhanced chemiluminescence method (GE Healthcare®). For the recombinant protein tests, each peptide was dissolved and maintained in 20 mM potassium phosphate at pH 7.1. The recombinant proteins and peptide dilutions were pre-incubated for 1 h at 4° C. prior to gel migration. The native polyacrylamide gel was made without SDS to allow molecular weight differentiation between the dimer and monomer. The following antibodies were used: a goat anti-Gal-7 antibody (1:10000; R&D Systems®, Minneapolis, Minn., USA), a mouse anti-Gal-1 antibody (1:10000; Proteintech®, Chicago, Ill., USA) and a rabbit anti-Bcl-2 antibody (1:1000; Abeam®, Cambridge, UK). Secondary antibodies consisted of donkey anti-goat (R&D Systems®) or sheep anti-mouse and sheep anti-rabbit (GE Healthcare®) IgG. Detection was performed as described above.
To determine whether these peptides could inhibit the formation of the hGal-7 homodimer, recombinant hGal-7 (0.5 μM) was incubated with increasing concentrations of hGal-7(13-25), hGal-7(85-102), hGal-7(95-108) or hGal 7(129-135) and the formation of homodimers was measured. To measure the ability of the peptides to disrupt the formation of hGal-7 dimers, a mild denaturing (low SDS) native gel electrophoresis, a commonly used approach to visualize monomer-dimer equilibrium, was used (FIG. 1A and FIG. 6).

[2] = system: Jurkat T cells; assay: FITC-labeled hGal-7 binding on Jurkat T cells, flow cytometry; format: cell-based; conditions: FITC-labeled hGal-7 0.1 μM pre-incubated with peptide, FIG. 4
Description: FITC conjugation and hGal-7 binding assay. To assess hGal-7 binding onto Jurkat T cells, 5 μL of a 1.25 mg/mL fluorescein isothiocyanate (FITC)/DMSO solution was added to 300 μL of 1.7 μg/μL recombinant hGal-7 in a 0.1 M NaHCO3 pH 9.2 solution and incubated for 1 h at room temperature on a roller. FITC-labeled hGal-7 was then purified using a PD-10 Sepharose® column (GE healthcare) and eluted with PBS containing 0.01% [v/v] sodium azide. FITC-labeled hGal-7 (0.1 μM) was then pre-incubated with hGal-7(129-135) (or related peptides) in 20 mM potassium phosphate buffer pH 7.1 for 1 h at 4° C. Jurkat cells (5×10^5 cells per sample) were harvested in PBS-0.01% [v/v] sodium azide and incubated for 30 min on ice with the FITC-labeled hGal-7 with and without peptides. Cells were then washed with PBS-0.01% [v/v] sodium azide and resuspended in 400 μL of the same buffer and analyzed on a FACSCalibur® (BD Biosciences®).
(§1) It was thus tested whether hGal-7(129-135) could modulate the binding of hGal-7 on Jurkat T cells, a cell model that is commonly used to test the pro-apoptotic activity of galectins. For this purpose, recombinant hGal-7 was labeled with fluorescein isothiocyante (FITC) and its binding on the surface of Jurkat T cells was measured by flow cytometry in absence or presence of increasing concentrations of hGal-7(129-135). […]

[3] = system: Jurkat T cells; assay: hGal-7-induced apoptosis of Jurkat T cells, PARP-1 cleavage by Western blotting; format: cell-based; conditions: 4 h at 37° C., serum-free RPMI, FIG. 5A
Description: Western blotting. For the apoptosis tests, whole-cell extracts were homogenized and resuspended in RIPA buffer (Thermo Fisher Scientific®, Rockford, Ill., USA) containing protease inhibitors (Roche®, Laval, QC, Canada). Equal amounts of whole-cell extracts (25 μg) were separated on SDS-PAGE and transferred onto nitrocellulose membranes (Bio-Rad Laboratories®). The membranes were first blocked with 5% milk [w/v] in TBS/0.5% Tween® 20 [v/v] for 1 h at room temperature and subsequently blotted overnight in a solution of TBS containing 3% BSA [w/v] and 0.5% Tween 20 [v/v]. The following antibodies were used: a rabbit anti-Poly-(ADP-ribose) polymerase (PARP)-1 (p25) polyclonal antibody (1:5000; Epitomics®, Burlingame, Calif., USA) and a mouse anti-β-actin (1:10000; Sigma-Aldrich®, St-Louis, Mo., USA). Secondary antibodies consisted of horseradish peroxidase-conjugated donkey anti-rabbit (GE Healthcare®, Buckinghamshire, England) and sheep anti-mouse (GE Healthcare®) IgG. […]
as §1

[4] = system: Jurkat T cells; assay: Apoptosis/toxicity of peptide alone in Jurkat T cells, Annexin V/PI; format: cell-based
Description: FIG. 8A: Flow cytometry histogram showing propidium iodide (PI) (FL3) labeling of Jurkat T cells without or with 200 μM of hGal-7(129-135). FIG. 8B: Histogram showing the average percentage of Annexin-V (AV) positive Jurkat T cells in the presence of increasing concentrations of […]. FIG. 8C: Flow cytometry histogram showing PI (FL3) labeling of Jurkat T cells without or with 200 μM of PACAP28-38 FIG. 8D: Histogram showing the average percentage of AV-positive Jurkat T cells in the presence of increasing concentrations of PACAP28-38. The percentage of cell death was obtained as described above. Error bars represent standard deviation. Significance was calculated with respect to AF samples. Results are representative of three independent experiments.
Apoptosis assays with Annexin V/PI staining. Apoptosis was measured by flow cytometry using FITC-labeled Annexin V (Biolegend®, San Diego, Calif., USA) and propidium iodide. Briefly, the corresponding dilutions of recombinant hGal-7 and hGal-7(129-135) peptides were pre-incubated for 1 h at 4° C. in serum-free RPMI 1640 medium. 2.5×10^5 Jurkat cells were then harvested in the same medium and incubated with their corresponding dilutions at 37° C. for 4 h. Cells were washed once in PBS and once in binding buffer (0.01 M HEPES, 0.14 M NaCl, 2.5 mM CaCl2, pH 7.4). Cells were then incubated for 15 min with Annexin V in the dark at room temperature. A total of 400 μL of binding buffer containing 0.25 μg/mL propidium iodide was added to the cells before analysis by flow cytometry.

disruption of hGal-7 homodimers (in words) [1] | Substance | fluorescent intensity of Jurkat T cells due to FITC-labeled hGal-7 binding [2] | inhibition of hGal-7-induced apoptosis, PARP-1 cleavage [3] | toxicity in Jurkat T cells ([4]; PI labeling at 200 μM, Annexin V at increasing concentrations, FIGS. 8A to 8D) | induction of apoptosis by peptide alone ([4]; peptide alone, FIG. 8)
less potent than hGal-7(129-135) | H-Phe-Glu-Val-Leu-lle-Ile-Ala-Ser-Asp-Asp-Gly-Phe-Lys-Ala-Val-Val-Gly-NH2 (H-FEVLIIASDDGFKAVVG-NH2; listed as Homo sapiens) [hGal-7(85-102), peptide corresponding to residues 85-102 of hGal-7] |  |  |  | 
less potent than hGal-7(129-135) | H-Asp-Gly-Phe-Lys-Ala-Val-Val-Gly-Asp-Ala-Gln-Tyr-His-His-NH2 (H-DGFKAVVGDAQYHH-NH2; listed as Homo sapiens) [hGal-7(95-108), peptide corresponding to residues 95-108 of hGal-7] |  |  |  | 

Second part, the substance before the results:

Substance | disruption of hGal-7 homodimers (in words) [1] | fluorescent intensity of Jurkat T cells due to FITC-labeled hGal-7 binding [2] | inhibition of hGal-7-induced apoptosis, PARP-1 cleavage [3] | toxicity in Jurkat T cells ([4]; PI labeling at 200 μM, Annexin V at increasing concentrations, FIGS. 8A to 8D) | induction of apoptosis by peptide alone ([4]; peptide alone, FIG. 8)
PACAP(28-38): control peptide selected based on similarity in amino acid length and minimal toxicity on the cell line (GKRYKQRVKNK) [reference compound] | No such effect was observed | No such effect was observed | No such effect was observed | do not induce toxicity in Jurkat T cells | did not induce apoptosis in Jurkat T cells
L-A-S-V-R-I-F-NH2 (LASVRIF-NH2; listed as Homo sapiens) [[Ala^130]hGal-7(129-135), alanine substitute peptide of hGal-7(129-135)] | abrogates the ability of the peptide to disrupt hGal-7 homodimers |  |  |  | 
H-Ile-Arg-Pro-Gly-Thr-Val-Leu-Arg-Ile-Arg-Gly-Leu-Val-NH2 (H-IRPGTVLRIRGLV-NH2; listed as Homo sapiens) [hGal-7(13-25), peptide corresponding to residues 13-25 of hGal-7] | less potent than hGal-7(129-135) |  |  |  | 
